# According to patent US20090232804A1 (GLENMARK PHARMACEUTICALS S A, published 2009):
# Substitutions are numbered along the chain they refer to. Where “and” joins values, the source holds several entries; their conditions need not be identical. Equal values may be shown once.
# B1: humanized NMC-4 variant H14, L11 (IgG1) (antibody, V domains shown)
# VH: QVQLQESGPGLVKPSETLSLTCTVSGGSISDYGWDWIRQPPGKGLEWIGMIWGDGSTDYNPSLKSRVTISVDTSKNQFSLKLSSVTAADTAVYYCARDPADYGNYDYALDYWGQGTLVTVSS
# VL: DIQMTQSPSSLSASVGDRVTITCQASQDISNYLNWYQQKPGKAPKLLIYDASNLETGVPSRFSGSGSGTDFTLTFSSLQPEDFATYYCQQYEKLPWTFGQGTKVEIK
# B2: humanized NMC-4 variant H8, L5 (IgG1) (antibody, V domains shown)
# VH: QVQLQESGPGLVKPSETLSLTCTVSGFSLTDYGVDWIRQPPGKGLEWIGMIWGDGSTDYNSALKSRLTISKDNSKNQFSLKLSSVTAADTAVYYCVRDPADYGNYDYALDYWGQGTSLTVSS
# VL: DIQMTQSPSSLSASVGDRVTITCSASQDINKYLNWYQQKPGKAVKLLIFYTSSLHSGVPSRFSGSGSGTDYTLTISSLQPEDIATYYCQQYEKLPWTFGQGTKVEIK
# B3: humanized NMC-4 variant H13, L10 (IgG1) (antibody, V domains shown)
# VH: B1 VH with P61S, S62A
# VL: B1 VL with D50Y, A51T, N53S, E55H, T56S, F75I
# B4: humanized NMC-4 variant H9, L6 (IgG1) (antibody, V domains shown)
# VH: B2 VH with L67V, K71V, N73T, V96A, S117L, L118V
# VL: B2 VL with F49Y
# B5: humanized NMC-4 variant H2, L4 (IgG1) (antibody, V domains shown)
# VH: B2 VH with F78V
# VL: B2 VL with V44P
# B6: humanized NMC-4 variant H9L9 IgG4 (antibody, V domains shown)
# VH: B2 VH with L67V, K71V, N73T, V96A, S117L, L118V
# VL: B2 VL with V44P, F49Y, Y71F, I83F
# B7: humanized NMC-4 variant H13, L9 (IgG1) (antibody, V domains shown)
# VH: B1 VH with P61S, S62A
# VL: B2 VL with V44P, F49Y, Y71F, I83F
# B8: humanized NMC-4 variant H5, L5 (IgG1) (antibody, V domains shown)
# VH: B2 VH with L67V, F78V
# VL: B2 VL
# B9: humanized NMC-4 variant H2, L5 (IgG1) (antibody, V domains shown)
# VH: B2 VH with F78V
# VL: B2 VL
# B10: humanized NMC-4 variant H2, L7 (IgG1) (antibody, V domains shown)
# VH: B2 VH with F78V
# VL: B2 VL with Y71F
# B11: humanized NMC-4 variant H4, L5 (IgG1) (antibody, V domains shown)
# VH: B2 VH with F78V, V96A
# VL: B2 VL
# B12: humanized NMC-4 variant H6, L5 (IgG1) (antibody, V domains shown)
# VH: B2 VH with K71V, F78V
# VL: B2 VL
# B13: humanized NMC-4 variant H14, L9 (IgG1) (antibody, V domains shown)
# VH: B1 VH
# VL: B2 VL with V44P, F49Y, Y71F, I83F
# B14: humanized NMC-4 variant H9, L8 (IgG1) (antibody, V domains shown)
# VH: B2 VH with L67V, K71V, N73T, V96A, S117L, L118V
# VL: B2 VL with V44P, F49Y, Y71F
# B15: humanized NMC-4 variant H9, L5 (IgG1) (antibody, V domains shown)
# VH: B2 VH with L67V, K71V, N73T, V96A, S117L, L118V
# VL: B2 VL
# B16: humanized NMC-4 variant H7, L5 (IgG1) (antibody, V domains shown)
# VH: B2 VH with N73T, F78V
# VL: B2 VL
# B17: humanized NMC-4 variant H14-L10, IgG4 (antibody, V domains shown)
# VH: B1 VH
# VL: B1 VL with D50Y, A51T, N53S, E55H, T56S, F75I
# B18: humanized NMC-4 variant H12, L9 (IgG1) (antibody, V domains shown)
# VH: B1 VH with W34V, P61S, S62A
# VL: B2 VL with V44P, F49Y, Y71F, I83F
# B19: humanized NMC-4 variant H14, L10, IgG1 (antibody, V domains shown)
# VH: B1 VH
# VL: B1 VL with D50Y, A51T, N53S, E55H, T56S, F75I
# B20: humanized NMC-4 variant H2, L6 (IgG1) (antibody, V domains shown)
# VH: B2 VH with F78V
# VL: B2 VL with F49Y
# B21: humanized NMC-4 variant H9, L7 (IgG1) (antibody, V domains shown)
# VH: B2 VH with L67V, K71V, N73T, V96A, S117L, L118V
# VL: B2 VL with Y71F
# B22: humanized NMC-4 variant H9, L9 (CDR-grafted), IgG1 (antibody, V domains shown)
# VH: B2 VH with L67V, K71V, N73T, V96A, S117L, L118V
# VL: B2 VL with V44P, F49Y, Y71F, I83F
# B23: humanized NMC-4 variant H9, L4 (IgG1) (antibody, V domains shown)
# VH: B2 VH with L67V, K71V, N73T, V96A, S117L, L118V
# VL: B2 VL with V44P
# B24: NMC-4 monoclonal antibody (murine anti-vWF antibody, IgG1κ) (antibody, V domains shown)
# VH: QVQLKESGPGLVAPSQSLSITCTVSGFSLTDYGVDWVRQPPGKGLEWLGMIWGDGSTDYNSALKSRLSITKDNSKSQVFLKMNSLQTDDTARYYCVRDPADYGNYDYALDYWGQGTSVTVSS
# VL: DIQMTQSPSSLSASLGDRVTISCSASQDINKYLNWYQQKPDGAVKLLIFYTSSLHSGVPSRFSGSGSGTDYSLTISNLEPEDIATYYCQQYEKLPWTFGGGTKLEVKR
# Assays:
# Test in all cases: cell-based or functional assay
# [1] = target: T1, purified human von Willebrand factor (vWF) (human, UniProt P04275 764-2813)
# [2] = target: T1, purified human von Willebrand factor …; remark: listed apart in the source
# [3] = target: T1, purified human von Willebrand factor …; remark: listed apart in the source
# [4] = target: T1, purified human von Willebrand factor …; remark: listed apart in the source
binder,measurement,setting,value
B1,"fold lower activity compared to chimera, platelet agglutination assay",[1],10 fold
same,"EC50 (nM), platelet agglutination assay",[2],1.63 nM
B2,fold change of EC50 against the other variants,[1],1.5 fold
same,EC50,[3],0.28 nM
B3,"EC50 (nM), platelet agglutination assay",[2],0.2 nM
B4,EC50,[3],0.13 nM
B5,EC50,[3],0.14 nM
B6,"Platelet agglutination EC50, single experiment",[4],1.3 nM and 1.5 nM
same,Platelet agglutination EC50 mean value (from 2 independent expts.),[4],1.4 nM
B7,"EC50 (nM), platelet agglutination assay",[2],0.16 nM
B8,EC50,[3],0.18 nM
B9,EC50,[3],0.13 nM
B10,EC50,[3],0.15 nM
B11,EC50,[3],0.15 nM
B12,EC50,[3],0.18 nM
B13,"EC50 (nM), platelet agglutination assay",[2],0.13 nM
B14,EC50,[3],0.08 nM
B15,EC50,[3],0.14 nM
B16,EC50,[3],0.16 nM
B17,"Platelet agglutination EC50, single experiment",[4],2.3 nM and 2 nM
same,Platelet agglutination EC50 mean value (from 2 independent expts.),[4],2.15 nM
B18,"EC50 (nM), platelet agglutination assay",[2],0.29 nM
B19,"EC50 (nM), platelet agglutination assay",[2],0.22 nM
same,"Platelet agglutination EC50, single experiment",[4],1.1 nM and 1.3 nM
same,Platelet agglutination EC50 mean value (from 2 independent expts.),[4],1.2 nM
B20,EC50,[3],0.14 nM
B21,EC50,[3],0.11 nM
B22,EC50,[3],0.12 nM
same,"EC50 (nM), platelet agglutination assay",[2],0.12 nM
same,"Platelet agglutination EC50, single experiment",[4],1.3 nM
same,Platelet agglutination EC50 mean value (from 2 independent expts.),[4],1.3 nM
B23,EC50,[3],0.11 nM
B24,"EC50, ristocetin-induced platelet agglutination assay",[1],0.17 nM
